Experiments:
[1] = Storage of ADCs in mouse-plasma for 7 days at 37° C.; format: in vitro ADME; settings: for DARav after plasma incubation n = 2 / Payload lost: mouse-plasma, 7 days at 37° C.
[2] = Repeated dose toxicity and toxicokinetics study in rats; format: in vivo, Sprague Dawley rats; settings: for Glucose level: one ADC compared to the other
Protocol: Experiments were performed in accordance with animal welfare law and approved by local authorities. […] Clinical observations, body weight and food consumption were determined daily throughout the study. Pharmacokinetic samples were obtained prior to each dose, 15 minutes post each dose and at necropsy from each animal. All animals were necropsied, with organs weighed and retained in fixative. Clinical pathology (hematology, clinical chemistry and coagulation end-points) samples were also taken at necropsy.
Clinical observations, body weight and food consumption were determined daily throughout the study. Pharmacokinetic samples were obtained prior to each dose, 15 minutes post each dose and at necropsy from each animal. All animals were necropsied, with organs weighed and retained in fixative. Clinical pathology (hematology, clinical chemistry, and coagulation endpoints) samples were also taken at necropsy.
As reference, rats were dosed with a control (vehicle) (data not shown).

[3] = cynomolgus monkey, cited from earlier work
cathepsin B = cathepsin B (Homo sapiens, UniProt P07858); experiment: Digestion of vc payloads with protease cathepsin B, RP-HPLC; format: biochemical; settings: cathepsin B 1:1000 for each vc moiety
Protocol: Prior to the conjugation with the antibody, payloads 2 and 3 have been analyzed for their susceptibility to cleavage by the protease cathepsin B (FIGS. 5A-5C).
FIGS. 5A-5C show in FIG. 5A an RP-HPLC analysis of the valine-citrulline (vc) containing payload 2 during digestion reaction with the protease cathepsin B (1:1000 for each vc moiety). Prior to analysis the reaction was stopped with E-64. The chromatogram after a reaction time of 150 min was recorded at 220 nm. […] During the reaction of payload 3 with cathepsin B an intermediate is formed (grey, triangle) which contains one MMAE moiety.

[4] = Repeated dose toxicity and toxicokinetic study in cynomolgus monkey; format: in vivo
Protocol: Clinical condition (incl. bodyweight, food consumption & clinical observations), clinical pathology and immunophenotyping (T, B and NK cells) was evaluated throughout the study, with frequent sampling for TK and anti-drug antibody determination. All animals were subject to full necropsy with detailed macroscopic observations.
Bodyweight is depicted in kilogram, lymphocytes in billion per liter, neutrophiles in billion per liter and white blood cells in billion per liter.

[5] = rat, 10 mg/kg weekly, compared to the Brentuximab Tub-tag ADC
[6] = cynomolgus monkey, 6, 12 and 15 mg/kg
[7] = cynomolgus monkey, 6, 12 and 15 mg/kg repeated dose

In the case of “Brentuximab vedotin: approved CD30 ADC: chimeric IgG1 brentuximab, Cathepsin B cleavable Valin-Citrulline linker, Monomethyl-Auristatin E; maleimide-linked, DARav 4”, the “DAR before plasma incubation” value [1] is reported as 4.02, the “DARav after plasma incubation n = 2” value [1] is reported as 1.53 and the Payload lost [1] is reported as 62%. The Hematocrit ([2]; rat, 10 mg/kg weekly) was “reduces hematocrit (mainly in males)”, the Hemoglobin levels ([2]; rat, 10 mg/kg weekly) was “reduces hemoglobin levels (mainly in males)” and the “MMAE driven testes changes” value ([2]; rat, 10 mg/kg weekly) was “testes changes were observed”. The “Red blood cell count” value ([2]; rat, 10 mg/kg weekly) was “marked impact”, the Reticulocytes count ([2]; rat, 10 mg/kg weekly) was “marked impact” and the APTT [2, 5] was “lower APTT values”. For the same compound, the Eosinophils counts [2, 5] was “lower eosinophils counts”, the Testis weight [2, 5] was “lower testis weight” and the Thymus weight [2, 5] was “lower thymus weight”. For the same compound, the Glucose level ([2]; rat, 10 mg/kg weekly) was “greater level of glucose”, the “tolerability at 6 mg/kg” value ([3]; 6 mg/kg) was “poorly tolerated” and the MTD [3] was 3 mg/kg.

In the case of HA-(VC-PAB-MMAE)2 [payload 3], the “susceptibility to cleavage by cathepsin B, release of free MMAE” value (cathepsin B) is reported as “cleaved by cathepsin B”.

For `CC[C@H](C)[C@H]([C@H](CC(=O)N1CCC[C@@H]1[C@@H](OC)[C@H](C)C(=O)N[C@@H](C)[C@H](O)c1ccccc1)OC)N(C)C(=O)[C@H](NC(O)[C@@H](C(C)C)N(C)C(=O)OCc1ccc(NC(=O)[C@@H](CCCNC(N)=O)NC(=O)[C@H](NC(=O)CON)C(C)C)cc1)C(C)C` (stereo partly shown) [payload 2, HA-VC-PAB-MMAE], the “susceptibility to cleavage by cathepsin B, release of free MMAE” value (cathepsin B) was “cleaved by cathepsin B”.

For “Bren. LC-2: Brentuximab with Tub-tag on light chains (SEQ ID NO: 11/1), 3-formyl-L-tyrosine, oxime-linked Payload 2 (vc-PAB-MMAE), DAR 2”, the “DAR before plasma incubation” value [1] was 2, the “DARav after plasma incubation n = 2” value [1] was 1.8 and the Payload lost [1] was 10%. The “overall safety profile in the rat” value ([2]; 10 mg/kg weekly) was “better safety profile compared to Brentuximab vedotin”, the “serum concentrations after repeated doses” value ([2]; rat, 10 mg/kg i.v. at day 1, 8, 15 and 22) was “reasonable levels of serum concentrations” and the Hematocrit ([2]; rat, 10 mg/kg weekly) was “no marked effect”. For the same compound, the Hemoglobin levels ([2]; rat, 10 mg/kg weekly) was “no marked effect”, the “MMAE driven testes changes” value ([2]; rat, 10 mg/kg weekly) was “delayed in onset” and the “Red blood cell count” value ([2]; rat, 10 mg/kg weekly) was “no marked effect”. For the same compound, the Reticulocytes count ([2]; rat, 10 mg/kg weekly) was “no effect”, the “impact on red blood cell populations” value ([2]; rat, 10 mg/kg weekly) was “no impact on red blood cell populations” and the Glucose level ([2]; rat, 10 mg/kg weekly) was “lower glucose levels”. The “lymphocytes concentration and white blood cells concentration” value [4, 6] was “No significant changes”, the “reduction in neutrophiles in comparison to Brentuximab vedotin (3 mg/kg)” value [4, 6] was “does not cause a higher amount of reduction in neutrophiles” and the clinical tolerability [4, 7] was “clinically well tolerated”. For the same compound, the “mortality, macroscopic and microscopic findings” value [4, 7] was “no mortality and no macroscopic or sever microscopic findings” and the “reductions in red blood cells, hemoglobin and neutrophils” value ([4]; cynomolgus monkey, at 12 & 15 mg/kg) was “relatively consistent to those observed with Adcetris at 3 mg/kg”.

In the case of “Bren. HC-2: Brentuximab with Tub-tag on heavy chains (SEQ ID NO: 2/12), 3-formyl-L-tyrosine, oxime-linked Payload 2 (vc-PAB-MMAE), DAR 2”, the “DAR before plasma incubation” value [1] is reported as 2, the “DARav after plasma incubation n = 2” value [1] is reported as 1.8 and the Payload lost [1] is reported as 10%.

Source: patent publication US20220193251A1, “CD30 TARGETING ANTIBODY DRUG CONJUGATES AND USES THEREOF” (Ludwig-Maximilians-Universitaet Muenchen, priority 2020, published 2022)
